# Paper PMC6555819, “Comprehensive study of nuclear receptor DNA binding provides a revised framework for understanding receptor specificity”
# Columns and labels:
# RARa:RXRa = RARa:RXRa (Homo sapiens, UniProt P10276;P19793 full;full); assay: no ligand; PBM; 270 nM : 90 nM RXRa; PBS pH 7.4, 2% milk, 0.02% Triton X-100, 1 mM DTT, BSA, 0.4 mg/ml salmon testes DNA; conditions: tags: His kept;His cleaved; copies: 1;1; label: surface-attached array probe
# Method in brief: (§1)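 Each nuclear receptor dimer, without ligand, was incubated for 1 h on custom Agilent 4×180K protein-binding microarrays. Binding was detected with antibodies against each partner (one per run), and scanned fluorescence was regression-normalized. The binding z-scores are referenced to random human genomic background probes.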
# THRa:RXRa = THRa:RXRa (Homo sapiens, UniProt P10827;P19793 full;full); assay: no ligand; PBM; 90 nM : 90 nM RXRa; PBS pH 7.4, 2% milk, 0.02% Triton X-100, 1 mM DTT, BSA, 0.4 mg/ml salmon testes DNA; conditions: tags: His kept;His cleaved; copies: 1;1; label: surface-attached array probe
# RXRa = RXRa (Homo sapiens, UniProt P19793); assay: no ligand; PBM; 180 nM; PBS pH 7.4, 2% milk, 0.02% Triton X-100, 1 mM DTT, BSA, 0.4 mg/ml salmon testes DNA; conditions: tags: His cleaved; chain copies: 2; label: surface-attached array probe
# Sequence of RXRa (P19793 whole entry): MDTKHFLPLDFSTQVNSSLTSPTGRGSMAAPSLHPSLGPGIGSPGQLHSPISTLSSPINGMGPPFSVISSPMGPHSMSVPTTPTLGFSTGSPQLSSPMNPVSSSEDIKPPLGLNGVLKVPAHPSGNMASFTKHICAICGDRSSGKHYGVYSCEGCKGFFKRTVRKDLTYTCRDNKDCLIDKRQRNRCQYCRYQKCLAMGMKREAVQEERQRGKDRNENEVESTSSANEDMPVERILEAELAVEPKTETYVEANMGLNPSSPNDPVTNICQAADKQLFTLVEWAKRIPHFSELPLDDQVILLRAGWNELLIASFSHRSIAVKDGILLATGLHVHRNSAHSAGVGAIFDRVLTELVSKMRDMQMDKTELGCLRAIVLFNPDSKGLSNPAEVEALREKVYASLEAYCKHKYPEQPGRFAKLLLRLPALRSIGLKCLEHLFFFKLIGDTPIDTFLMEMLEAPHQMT
# PXR:RXRa = PXR:RXRa (Homo sapiens, UniProt O75469;P19793 full;full); assay: no ligand; PBM; 270 nM : 90 nM RXRa; PBS pH 7.4, 2% milk, 0.02% Triton X-100, 1 mM DTT, BSA, 0.4 mg/ml salmon testes DNA; conditions: tags: His kept;His cleaved; copies: 1;1; label: surface-attached array probe
# Sequence of PXR:RXRa (O75469 whole entry, chain 1 of 2): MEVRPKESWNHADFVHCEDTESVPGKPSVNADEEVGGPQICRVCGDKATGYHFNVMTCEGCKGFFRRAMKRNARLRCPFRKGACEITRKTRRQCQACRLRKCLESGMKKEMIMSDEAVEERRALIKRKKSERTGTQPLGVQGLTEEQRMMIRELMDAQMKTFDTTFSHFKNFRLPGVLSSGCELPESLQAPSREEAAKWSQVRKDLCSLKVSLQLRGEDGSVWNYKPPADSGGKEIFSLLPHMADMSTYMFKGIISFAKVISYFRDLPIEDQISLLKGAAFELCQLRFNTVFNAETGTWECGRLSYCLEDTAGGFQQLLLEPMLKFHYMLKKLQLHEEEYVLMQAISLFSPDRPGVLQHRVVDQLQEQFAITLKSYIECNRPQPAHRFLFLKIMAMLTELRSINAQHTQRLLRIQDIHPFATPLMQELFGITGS
# Sequence of PXR:RXRa (P19793 whole entry, chain 2 of 2): as the sequence (P19793 whole entry) above
# Method in brief: as §1
# PPARg:RXRa = PPARg:RXRa (Homo sapiens, UniProt P37231;P19793 full;full); assay: no ligand; PBM; 180 nM : 90 nM RXRa; PBS pH 7.4, 2% milk, 0.02% Triton X-100, 1 mM DTT, BSA, 0.4 mg/ml salmon testes DNA; conditions: tags: His kept;His cleaved; copies: 1;1; label: surface-attached array probe
# Sequence of PPARg:RXRa (P37231 29-505, chain 1 of 2): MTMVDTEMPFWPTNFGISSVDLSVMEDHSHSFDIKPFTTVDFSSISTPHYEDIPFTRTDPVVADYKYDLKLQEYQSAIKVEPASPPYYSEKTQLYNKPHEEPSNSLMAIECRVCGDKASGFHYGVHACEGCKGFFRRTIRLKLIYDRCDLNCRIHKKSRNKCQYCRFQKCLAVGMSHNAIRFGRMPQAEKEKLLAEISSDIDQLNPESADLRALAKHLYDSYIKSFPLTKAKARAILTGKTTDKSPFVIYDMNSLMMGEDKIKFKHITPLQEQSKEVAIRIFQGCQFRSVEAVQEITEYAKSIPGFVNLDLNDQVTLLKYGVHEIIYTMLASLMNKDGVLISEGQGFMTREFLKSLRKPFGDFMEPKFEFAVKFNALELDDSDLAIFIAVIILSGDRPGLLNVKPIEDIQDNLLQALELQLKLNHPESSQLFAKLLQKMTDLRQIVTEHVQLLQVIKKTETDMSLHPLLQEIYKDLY
# Sequence of PPARg:RXRa (P19793 whole entry, chain 2 of 2): as the sequence (P19793 whole entry) above
# LXRa:RXRa = LXRa:RXRa (Homo sapiens, UniProt Q13133;P19793 full;full); assay: no ligand; PBM; 270 nM : 90 nM RXRa; PBS pH 7.4, 2% milk, 0.02% Triton X-100, 1 mM DTT, BSA, 0.4 mg/ml salmon testes DNA; conditions: tags: His kept;His cleaved; copies: 1;1; label: surface-attached array probe
# Method in brief: as §1
# FXR:RXRa = FXR:RXRa (Homo sapiens, UniProt Q96RI1;P19793 full;full); assay: as above; conditions: tags: His kept;His cleaved; copies: 1;1; label: surface-attached array probe
# Method in brief: as §1
# PPARa:RXRa = PPARa:RXRa (Homo sapiens, UniProt Q07869;P19793 full;full); assay: as above; conditions: tags: GST kept;His cleaved; copies: 1;1; label: surface-attached array probe
# Method in brief: as §1
# LXRb:RXRa = LXRb:RXRa (Homo sapiens, UniProt P55055;P19793 full;full); assay: as above; conditions: tags: His kept;His cleaved; copies: 1;1; label: surface-attached array probe
# Sequence of LXRb:RXRa (P55055 whole entry, chain 1 of 2): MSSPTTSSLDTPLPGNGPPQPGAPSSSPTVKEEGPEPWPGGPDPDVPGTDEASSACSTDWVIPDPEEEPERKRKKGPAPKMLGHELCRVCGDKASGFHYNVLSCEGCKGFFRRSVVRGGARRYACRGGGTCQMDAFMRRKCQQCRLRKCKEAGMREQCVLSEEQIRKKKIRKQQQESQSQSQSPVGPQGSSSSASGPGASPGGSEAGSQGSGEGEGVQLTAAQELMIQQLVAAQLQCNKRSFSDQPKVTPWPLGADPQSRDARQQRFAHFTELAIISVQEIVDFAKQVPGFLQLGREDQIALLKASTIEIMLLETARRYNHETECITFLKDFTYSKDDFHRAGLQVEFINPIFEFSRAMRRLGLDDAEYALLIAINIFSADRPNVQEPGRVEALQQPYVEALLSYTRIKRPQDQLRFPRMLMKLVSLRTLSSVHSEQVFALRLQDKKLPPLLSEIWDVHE
# Sequence of LXRb:RXRa (P19793 whole entry, chain 2 of 2): as the sequence (P19793 whole entry) above
# Method in brief: as §1
# RARg:RXRa = RARg:RXRa (Homo sapiens, UniProt P13631;P19793 full;full); assay: as above; conditions: tags: His kept;His cleaved; copies: 1;1; label: surface-attached array probe
# Method in brief: as §1
# RARb:RXRa = RARb:RXRa (Homo sapiens, UniProt P10826;P19793 full;full); assay: as above; conditions: tags: His kept;His cleaved; copies: 1;1; label: surface-attached array probe
# Method in brief: as §1
# VDR:RXRa = VDR:RXRa (Homo sapiens, UniProt P11473;P19793 full;full); assay: as above; conditions: tags: His kept;His cleaved; copies: 1;1; label: surface-attached array probe
# Method in brief: as §1
# Sequence of RARa:RXRa (P10276 whole entry, chain 1 of 2): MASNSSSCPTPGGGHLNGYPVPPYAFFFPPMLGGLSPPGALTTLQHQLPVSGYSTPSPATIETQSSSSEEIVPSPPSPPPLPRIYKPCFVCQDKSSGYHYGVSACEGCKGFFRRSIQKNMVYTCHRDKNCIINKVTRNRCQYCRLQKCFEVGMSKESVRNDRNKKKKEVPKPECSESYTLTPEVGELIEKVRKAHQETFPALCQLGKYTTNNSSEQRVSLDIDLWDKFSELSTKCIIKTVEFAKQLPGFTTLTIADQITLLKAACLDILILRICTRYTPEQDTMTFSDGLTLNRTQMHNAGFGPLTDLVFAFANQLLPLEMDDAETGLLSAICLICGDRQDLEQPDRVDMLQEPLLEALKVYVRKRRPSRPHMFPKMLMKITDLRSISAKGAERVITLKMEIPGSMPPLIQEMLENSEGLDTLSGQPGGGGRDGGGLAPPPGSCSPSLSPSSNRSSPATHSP
# Sequence of RARa:RXRa (P19793 whole entry, chain 2 of 2): as the sequence (P19793 whole entry) above
Binder,binding signal (RARa:RXRa),binding signal (THRa:RXRa),binding signal (PPARg:RXRa),further results
NRC3_wobSeed111_DR4_T8G_o1 (dsDNA) DNA 1: GCCGAACGAGGTCAGAACAGGACAGTGAAGGATGATGCGATTGACAGCGTAGAATGAAGG DNA 2: CCTTCATTCTACGCTGTCAATCGCATCATCCTTCACTGTCCTGTTCTGACCTCGTTCGGC,3.37 PBM z-score against 500 random probes,4.78 PBM z-score against 500 random probes,–,–
NRC3_random_hg19_227_o1 (dsDNA) DNA 1: GCGAAGGAAGGAAGGAAGGAAGGAAGGAAGGAAGGCGCGATTGACAGCGTAGAATGAAGG DNA 2: CCTTCATTCTACGCTGTCAATCGCGCCTTCCTTCCTTCCTTCCTTCCTTCCTTCCTTCGC,–,-0.49 PBM z-score against 500 random probes,-0.31 PBM z-score against 500 random probes,binding signal (RXRa): -1.01 PBM z-score against 500 random probes; binding signal (PXR:RXRa): -0.88 PBM z-score against 500 random probes
NRC3_random_hg19_379_o1 (dsDNA) DNA 1: GCAGGCTGGCAGATGGTTCAACAGGTGAGTAAAGCAGCGATTGACAGCGTAGAATGAAGG DNA 2: CCTTCATTCTACGCTGTCAATCGCTGCTTTACTCACCTGTTGAACCATCTGCCAGCCTGC,–,-0.17 PBM z-score against 500 random probes,-0.07 PBM z-score against 500 random probes,binding signal (LXRa:RXRa): -0.53 PBM z-score against 500 random probes
NRC3_wobSeed85_DR3_A16T_o1 (dsDNA) DNA 1: GCCGTCCAAGGTCAGTGAGGTCAGTGAATGCCGAGTGCGATTGACAGCGTAGAATGAAGG DNA 2: CCTTCATTCTACGCTGTCAATCGCACTCGGCATTCACTGACCTCACTGACCTTGGACGGC,4.46 PBM z-score against 500 random probes,4.89 PBM z-score against 500 random probes,–,–
NRC3_random_hg19_402_o1 (dsDNA) DNA 1: GCTGAGGTGCTTCAGAGATGTCCACTCCTGCTGGCTGCGATTGACAGCGTAGAATGAAGG DNA 2: CCTTCATTCTACGCTGTCAATCGCAGCCAGCAGGAGTGGACATCTCTGAAGCACCTCAGC,–,-0.6 PBM z-score against 500 random probes,-0.45 PBM z-score against 500 random probes,binding signal (FXR:RXRa): -0.38 PBM z-score against 500 random probes; binding signal (PPARa:RXRa): -0.4 PBM z-score against 500 random probes; binding signal (PXR:RXRa): -0.8 PBM z-score against 500 random probes
NRC3_random_hg19_266_o1 (dsDNA) DNA 1: GCAATGACAAGGAAGTGTGGAGGCAGAAAGTGCCAAGCGATTGACAGCGTAGAATGAAGG DNA 2: CCTTCATTCTACGCTGTCAATCGCTTGGCACTTTCTGCCTCCACACTTCCTTGTCATTGC,-0.53 PBM z-score against 500 random probes,-0.07 PBM z-score against 500 random probes,–,binding signal (LXRb:RXRa): -0.28 PBM z-score against 500 random probes
NRC3_wobSeed73_DR3_A18G_o1 (dsDNA) DNA 1: GCCAAACTAGGTCACAGGGGTCAAAGTCCGTGCGTAGCGATTGACAGCGTAGAATGAAGG DNA 2: CCTTCATTCTACGCTGTCAATCGCTACGCACGGACTTTGACCCCTGTGACCTAGTTTGGC,–,5.07 PBM z-score against 500 random probes,10.8 PBM z-score against 500 random probes,binding signal (RARg:RXRa): 7.8 PBM z-score against 500 random probes; binding signal (PPARa:RXRa): 7.23 PBM z-score against 500 random probes
NRC3_random_hg19_156_o1 (dsDNA) DNA 1: GCGCCACCAGGCCTGCCTTACAAGAGCTCCTGAAGAGCGATTGACAGCGTAGAATGAAGG DNA 2: CCTTCATTCTACGCTGTCAATCGCTCTTCAGGAGCTCTTGTAAGGCAGGCCTGGTGGCGC,-0.57 PBM z-score against 500 random probes,-0.26 PBM z-score against 500 random probes,–,–
NRC3_wobSeed133_DR5_G26C_o1 (dsDNA) DNA 1: GCCGTCCAAGGTCAATGCTAGGTCACTGAAAGCATTGCGATTGACAGCGTAGAATGAAGG DNA 2: CCTTCATTCTACGCTGTCAATCGCAATGCTTTCAGTGACCTAGCATTGACCTTGGACGGC,7.16 PBM z-score against 500 random probes,4.78 PBM z-score against 500 random probes,–,–
NRC3_wobSeed133_DR5_C18T_o1 (dsDNA) DNA 1: GCCGTCCAAGGTCAATGTTAGGTCAGTGAAAGCATTGCGATTGACAGCGTAGAATGAAGG DNA 2: CCTTCATTCTACGCTGTCAATCGCAATGCTTTCACTGACCTAACATTGACCTTGGACGGC,–,5.15 PBM z-score against 500 random probes,4 PBM z-score against 500 random probes,binding signal (RARb:RXRa): 5.45 PBM z-score against 500 random probes
NRC3_random_hg19_91_o1 (dsDNA) DNA 1: GCGACTCAGACACTGCTGGCACCCGACACTGCTCTCGCGATTGACAGCGTAGAATGAAGG DNA 2: CCTTCATTCTACGCTGTCAATCGCGAGAGCAGTGTCGGGTGCCAGCAGTGTCTGAGTCGC,-0.13 PBM z-score against 500 random probes,-0.34 PBM z-score against 500 random probes,–,–
NRC3_wobSeed138_DR5_C13G_o1 (dsDNA) DNA 1: GCGATACAGGGTGAGCTAGAGGCCAGAGTATGGAAAGCGATTGACAGCGTAGAATGAAGG DNA 2: CCTTCATTCTACGCTGTCAATCGCTTTCCATACTCTGGCCTCTAGCTCACCCTGTATCGC,–,0.33 PBM z-score against 500 random probes,0.43 PBM z-score against 500 random probes,–
NRC3_random_hg19_372_o1 (dsDNA) DNA 1: GCGAGGTTGCAGTGAGCCAAGATTGCACCACTGCACGCGATTGACAGCGTAGAATGAAGG DNA 2: CCTTCATTCTACGCTGTCAATCGCGTGCAGTGGTGCAATCTTGGCTCACTGCAACCTCGC,–,-0.05 PBM z-score against 500 random probes,-0.12 PBM z-score against 500 random probes,–
NRC3_random_hg19_80_o1 (dsDNA) DNA 1: GCCAATACAGCTTTGGCTTCTGCAGAATCTGAGGAAGCGATTGACAGCGTAGAATGAAGG DNA 2: CCTTCATTCTACGCTGTCAATCGCTTCCTCAGATTCTGCAGAAGCCAAAGCTGTATTGGC,–,-1.02 PBM z-score against 500 random probes,-0.24 PBM z-score against 500 random probes,binding signal (RXRa): -0.53 PBM z-score against 500 random probes
NRC3_random_hg19_233_o1 (dsDNA) DNA 1: GCTACAAAGTACTGGGATCCTCCCAACAGCCTGCAAGCGATTGACAGCGTAGAATGAAGG DNA 2: CCTTCATTCTACGCTGTCAATCGCTTGCAGGCTGTTGGGAGGATCCCAGTACTTTGTAGC,–,-0.3 PBM z-score against 500 random probes,0.13 PBM z-score against 500 random probes,binding signal (PXR:RXRa): -0.22 PBM z-score against 500 random probes
NRC3_wobSeed49_DR2_T8G_o1 (dsDNA) DNA 1: GCCAAACGAGGTCAAGAGGTCAAAGTCCGCTTCCCGGCGATTGACAGCGTAGAATGAAGG DNA 2: CCTTCATTCTACGCTGTCAATCGCCGGGAAGCGGACTTTGACCTCTTGACCTCGTTTGGC,–,5.13 PBM z-score against 500 random probes,–,binding signal (RXRa): 9.6 PBM z-score against 500 random probes; binding signal (LXRa:RXRa): 7.08 PBM z-score against 500 random probes; binding signal (RARg:RXRa): 9.13 PBM z-score against 500 random probes; binding signal (VDR:RXRa): 7.24 PBM z-score against 500 random probes; binding signal (RARb:RXRa): 6.35 PBM z-score against 500 random probes; binding signal (FXR:RXRa): 8.68 PBM z-score against 500 random probes; binding signal (LXRb:RXRa): 6.98 PBM z-score against 500 random probes; binding signal (PPARa:RXRa): 7.33 PBM z-score against 500 random probes; binding signal (PXR:RXRa): 7.24 PBM z-score against 500 random probes
NRC3_random_hg19_119_o1 (dsDNA) DNA 1: GCCCTACCCTCCTCCCTGTCACTCGCCAGTCCCAGCGCGATTGACAGCGTAGAATGAAGG DNA 2: CCTTCATTCTACGCTGTCAATCGCGCTGGGACTGGCGAGTGACAGGGAGGAGGGTAGGGC,–,-0.04 PBM z-score against 500 random probes,-0.75 PBM z-score against 500 random probes,binding signal (VDR:RXRa): 0.49 PBM z-score against 500 random probes
NRC3_random_hg19_192_o1 (dsDNA) DNA 1: GCGCAGGAAGCCCTCCTCCAGCTTACAGTGGAACTCGCGATTGACAGCGTAGAATGAAGG DNA 2: CCTTCATTCTACGCTGTCAATCGCGAGTTCCACTGTAAGCTGGAGGAGGGCTTCCTGCGC,-1.09 PBM z-score against 500 random probes,-0.77 PBM z-score against 500 random probes,–,binding signal (LXRb:RXRa): -1.14 PBM z-score against 500 random probes
NRC3_random_hg19_47_o1 (dsDNA) DNA 1: GCGCCTTCAGGAACATGCTATTCTGTCTATGGAGTCGCGATTGACAGCGTAGAATGAAGG DNA 2: CCTTCATTCTACGCTGTCAATCGCGACTCCATAGACAGAATAGCATGTTCCTGAAGGCGC,–,-0.54 PBM z-score against 500 random probes,0.27 PBM z-score against 500 random probes,–
